In US20100209422A1:

Columns and labels:
[1] = target: protofibrillar (PF) form of Aβ42 (human); assay: SPR (BIAcore), antibody immobilized, PF Aβ42 injected
[2] = target: low-molecular weight (LMW) form of Aβ42 (human); assay: SPR (BIAcore), antibody immobilized, LMW Aβ42 injected
[3] = target: protofibrillar (PF) form of Aβ42 (human); assay: SPR (BIAcore), ratio of PF binding to LMW binding

Chain of protofibrillar (PF) form of Aβ42 (human) (peptide, as listed by the source): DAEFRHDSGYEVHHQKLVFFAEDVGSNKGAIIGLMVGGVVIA
Chain of low-molecular weight (LMW) form of Aβ42 (human) (peptide, as listed by the source): as above

Row | Substance | BIACORE Binding Analysis PF [1] | BIACORE Binding Analysis LMW [2] | Ratio (PF/LMW) [3]
1 | 82E1 (antibody) | 68.4 | 69.9 | 1
2 | 6E10 (antibody) | 541 | 400 | 1.4
3 | monoclonal antibody 4G8 | 340 | 229 | 1.5
4 | 3D6 anti-Aβ antibody | 403 | 425 | 0.9
